Source: patent US20180030144A1 (INNATE PHARMA, published 2018)
Substitutions are numbered along the chain they refer to. Numbers in names are those of the source. Values belong to the binder of their own block, whether it stands above or below them.

Tests used:
[1] = molecular target: T1, recombinant human CD73-His extracellular domain protein (soluble dimer) (human, UniProt P21589 27-547); assay: SPR (Biacore T100), antibody captured on Protein-A, soluble dimeric CD73 injected 1.23-300 nM, 1:1 model, bivalent affinity
T1 construct: Purified as a dimer; also called huCD73; soluble recombinant human CD73
T1 sequence: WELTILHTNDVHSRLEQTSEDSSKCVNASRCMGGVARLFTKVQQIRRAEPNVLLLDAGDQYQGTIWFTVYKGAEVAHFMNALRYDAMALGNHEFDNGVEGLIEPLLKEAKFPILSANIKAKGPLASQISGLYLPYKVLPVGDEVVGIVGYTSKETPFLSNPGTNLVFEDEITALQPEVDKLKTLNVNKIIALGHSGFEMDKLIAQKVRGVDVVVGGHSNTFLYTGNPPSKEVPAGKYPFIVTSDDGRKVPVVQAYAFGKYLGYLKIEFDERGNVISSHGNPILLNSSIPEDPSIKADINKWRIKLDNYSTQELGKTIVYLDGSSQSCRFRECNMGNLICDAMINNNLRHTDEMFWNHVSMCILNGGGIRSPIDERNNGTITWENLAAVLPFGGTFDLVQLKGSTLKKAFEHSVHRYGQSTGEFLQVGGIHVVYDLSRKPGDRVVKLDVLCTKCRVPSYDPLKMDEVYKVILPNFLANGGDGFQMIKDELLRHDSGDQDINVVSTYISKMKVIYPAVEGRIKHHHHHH
Procedure: SPR measurements were performed on a Biacore T100 apparatus (Biacore GE Healthcare) at 25° C. In all Biacore experiments HBS-EP+(Biacore GE Healthcare) and NaOH 10 mM served as running buffer and regeneration buffer respectively. Sensorgrams were analyzed with Biacore T100 Evaluation software. Protein-A was purchase from (GE Healthcare). Human soluble dimeric CD73 proteins were cloned, produced and purified at Innate Pharma.
Protein-A proteins were immobilized covalently to carboxyl groups in the dextran layer on a Sensor Chip CMS. The chip surface was activated with EDC/NHS (N-ethyl-N′-(3-dimethylaminopropyl) carbodiimide hydrochloride and N-hydroxysuccinimide (Biacore GE Healthcare). Protein-A was diluted to 10 μg/ml in coupling buffer (10 mM acetate, pH 5.6) and injected until the appropriate immobilization level was reached (i.e. 2000 RU). Deactivation of the remaining activated groups was performed using 100 mM ethanolamine pH 8 (Biacore GE Healthcare).
Affinity study was carried out according to a standard Capture-Kinetic protocol recommended by the manufacturer (Biacore GE Healthcare kinetic wizard). Serial dilutions of human recombinant soluble dimeric CD73 proteins, ranging from 1.23 to 300 nM were sequentially injected over the captured anti-CD73 antibodies and allowed to dissociate for 10 min before regeneration. The entire sensorgram sets were fitted using the 1:1 kinetic binding model. Bivalent affinities and kinetic association and dissociation rate constants are shown below in Table 2 below.

[2] = molecular target: T2, human CD73 expressed at the cell surface (human, UniProt P21589 27-549); assay: cell-based or functional assay
T2 sequence: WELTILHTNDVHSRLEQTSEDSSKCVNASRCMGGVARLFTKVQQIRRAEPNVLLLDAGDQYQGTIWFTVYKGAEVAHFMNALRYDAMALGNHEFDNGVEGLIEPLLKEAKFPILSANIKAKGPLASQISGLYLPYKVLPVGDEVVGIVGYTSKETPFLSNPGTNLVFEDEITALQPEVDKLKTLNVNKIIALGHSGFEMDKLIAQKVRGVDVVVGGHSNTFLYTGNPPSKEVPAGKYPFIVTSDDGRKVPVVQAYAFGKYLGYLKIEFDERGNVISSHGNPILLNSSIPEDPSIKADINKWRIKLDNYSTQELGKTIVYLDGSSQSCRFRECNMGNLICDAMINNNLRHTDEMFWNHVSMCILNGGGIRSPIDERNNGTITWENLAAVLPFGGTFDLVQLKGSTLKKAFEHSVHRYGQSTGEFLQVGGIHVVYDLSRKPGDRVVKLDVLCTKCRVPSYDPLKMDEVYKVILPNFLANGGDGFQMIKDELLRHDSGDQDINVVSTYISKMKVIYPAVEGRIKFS

[3] = molecular target: T2, human CD73 expressed at the cell surface; assay: cell-based or functional assay; remark: listed apart in the source
[4] = molecular target: T2, human CD73 expressed at the cell surface; assay: flow cytometry titration on HEK293T cells transfected with wild type human CD73, mean of fluorescence

Kd [1]: 0.822 nM
EC50 for neutralization of 5'-ectonucleotidase activity, mean over MDA-MB-231, H292 and A375 cells [2]: 0.1 µg/mL
EC70 for neutralization of 5'-ectonucleotidase activity, mean over MDA-MB-231, H292 and A375 cells [2]: 0.15 µg/mL
EC100 for neutralization of 5'-ectonucleotidase activity, mean over MDA-MB-231, H292 and A375 cells [2]: 0.52 µg/mL
EC50 for neutralization of the enzymatic activity of cellular CD73 (MDA-MB-231 cells, free phosphate from AMP) [3]: 0.195 µg/mL
B1: antibody 11E1 (antibody, human IgG1, V domains shown)
VH: EIQLQQSGPELVKPGASVKVSCKASGYAFTSYNMYWVKQSHGKSLEWIGYIDPYNGGTSYNQKFKGKATLTVDKSSSTAYMHLNSLTSEDSAVYYCARGYGNYKAWFAYWGQGTLVTVSA
VL: DAVMTQTPKFLLVSAGDRVTITCKASQSVTNDVAWYQQKPGQSPKLLIYYASNRYTGVPDRFTGSGYGTDFTFTISTVQAEDLAVYFCQQDYSSLTFGAGTKLELK
notes: Produced as chimeric human IgG1 with heavy chain N297Q (Kabat EU numbering); also called 1E11

Kd [1]: 0.682 nM
EC50 for neutralization of 5'-ectonucleotidase activity, mean over MDA-MB-231, H292 and A375 cells [2]: 0.14 µg/mL
EC70 for neutralization of 5'-ectonucleotidase activity, mean over MDA-MB-231, H292 and A375 cells [2]: 0.18 µg/mL
EC100 for neutralization of 5'-ectonucleotidase activity, mean over MDA-MB-231, H292 and A375 cells [2]: 0.3 µg/mL
EC50 (read off the curve) [4]: ~0.2 µg/mL
EC50 for neutralization of the enzymatic activity of cellular CD73 (MDA-MB-231 cells, free phosphate from AMP) [3]: 0.21 µg/mL
B2: antibody 3C12 (antibody, human IgG1, V domains shown)
VH: B1 VH with E1Q, T30A, Y35N, E46D, T58S, Q62L, K63T, S77T
VL: DVVMTQTPKFLLVSAGDRVTITCKASQSVSNDVAWYQQKPGQSPKLLIYYASTRYTGVPDRFTGSGYGTDFTFTISTVQAEDLAVYFCQQDYSSLTFGAGTKLELKR
notes: Produced as chimeric human IgG1 with heavy chain N297Q (Kabat EU numbering); RTVAAP)

Kd [1]: 0.819 nM
EC50 for neutralization of 5'-ectonucleotidase activity, mean over MDA-MB-231, H292 and A375 cells [2]: 0.13 µg/mL
EC70 for neutralization of 5'-ectonucleotidase activity, mean over MDA-MB-231, H292 and A375 cells [2]: 0.19 µg/mL
EC100 for neutralization of 5'-ectonucleotidase activity, mean over MDA-MB-231, H292 and A375 cells [2]: 0.68 µg/mL
EC50 for neutralization of the enzymatic activity of cellular CD73 (MDA-MB-231 cells, free phosphate from AMP) [3]: 0.209 µg/mL
B3: antibody 6E1 (antibody, human IgG1, V domains shown)
VH: B1 VH with I2F, S44R, T58S, S85N, G101N
VL: B1 VL with D1S, A2I, V78M
notes: Produced as chimeric human IgG1 with heavy chain N297Q (Kabat EU numbering)
